Patent US20230077716A1 (published 2023)
Values joined by “and” are separate entries in the source; they are usually repeats but may differ in a detail not shown here. Equal values may be shown once.

Molecular target: recombinant B/Phuket/3073/2013 NA ectodomain (tetramer) (UniProt P16199 79-465)
Assay: BLI

B1: 2E01 Fab (Fab, V domains shown)
VH: EVQLVQSGAEVKKPGSSVKVSCKASGYTFINHALSWVRQAPGQGLEWVGGIIPIFGLAKYGQKFQDRVTITADESTKTAYMDLRSLRSDDTAVYYCARDTVAVYEDFDWSSPYFFYMDVWGKGTTVTVSS
VL: EIVLTQSPATLSLFPGERATLSCRASQSAGSKSLAWYQHKVGQPPRLLINGASSRATGIPDRFSGSGSGPDFNLTISRLEPEDFAVYYCQRYGTSLVTFGGGTKVEIK
How did the Kd turn out when B1 was run?
The Kd was 441 nM and 150 nM.
